The record followed here is IntAct's records for PubMed 21600204.

First the molecules themselves.
B1: OriC-binding nucleoid-associated protein (Escherichia coli (strain K12)), P64467 (parent)
chain: MTVQDYLLKFRKISSLESLEKLYDHLNYTLTDDQELINMYRAADHRRAELVSGGRLFDLGQVPKSVWHYVQ
partner: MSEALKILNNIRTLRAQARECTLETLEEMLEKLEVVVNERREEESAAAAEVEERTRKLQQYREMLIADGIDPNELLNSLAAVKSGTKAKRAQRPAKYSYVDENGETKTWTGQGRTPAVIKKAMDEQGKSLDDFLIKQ
B2: Hemolysin expression-modulating protein Hha (Escherichia coli (strain K12)), P0ACE3 (parent)
chain: MSEKPLTKTDYLMRLRRCQTIDTLERVIEKNKYELSDNELAVFYSAADHRLAELTMNKLYDKIPSSVWKFIR
partner: B1 partner

In the first assay the parent is B1. The conditions noted are these: with hns_ecoli hns.
With D44N, the “effect of a mutation on the interaction” value is reported as “disrupting interaction”.

In the next assay the parent is B2. The settings on record: with hns_ecoli hns.
As for D48N, the “effect of a mutation on the interaction” value is listed as “disrupting interaction”.

Variants of B2 are the subject of another assay. The conditions noted are these: with hns_ecoli hns. This is another data set of the same source.
For the variant E25Q, the “effect of a mutation on the interaction” value is “decreasing interaction”.
